Results as given in patent publication US5959145A, “Fatty acid analog enzyme substrates” (priority 1993, dated 1999).

B1: yeast NMT (Saccharomyces cerevisiae S288C) (protein)
chain: MSEEDKAKKLENLLKLLQLNNDDTSKFTQEQKKAMKDHKFWRTQPVKDFDEKVVEEGPIDKPKTPEDISDKPLPLLSSFEWCSIDVDNKKQLEDVFVLLNENYVEDRDAGFRFNYTKEFFNWALKSPGWKKDWHIGVRVKETQKLVAFISAIPVTLGVRGKQVPSVEINFLCVHKQLRSKRLTPVLIKEITRRVNKCDIWHALYTAGIVLPAPVSTCRYTHRPLNWKKLYEVDFTGLPDGHTEEDMIAENALPAKTKTAGLRKLKKEDIDQVFELFKRYQSRFELIQIFTKEEFEHNFIGEESLPLDKQVIFSYVVEQPDGKITDFFSFYSLPFTILNNTKYKDLGIGYLYYYATDADFQFKDRFDPKATKALKTRLCELIYDACILAKNANMDVFNALTSQDNTLFLDDLKFGPGDGFLNFYLFNYRAKPITGGLNPDNSNDIKRRSNVGVVML

Experiments:
[1] = molecular target: T1, yeast NMT (Saccharomyces cerevisiae, UniProt P14743); assay: kinetic characterisation of fatty acid analogs as yeast NMT substrates; format: biochemical
T1 construct: 11,000-fold purified preparation of yeast NMT; endogenous in cells; host or cells: yeast (enzyme purified from yeast, 11,000-fold)
T1 sequence (P14743 1-455): B1 chain
From the text: (§1) Similar results were obtained using an 11,000-fold purified preparation of yeast NMT [Towler et al., Proc. Natl. Acad. Sci. USA 84, 2708-2712 (1987)].
(§2) Other illustrative examples of the oxy- and thio-substituted fatty acid analog substrate compounds of the invention were synthesized in Examples 6 to 14 and tested in Example 15 as substrates for the yeast NMT.
(§3) For these Examples, each analog synthesized is characterized by ^1 H and ^13 C NMR as well as mass spectroscopy. The analogs are then characterized kinetically as NMT substrates. Briefly, fatty acid analogs are converted to their CoA esters with Pseudomonas CoA ligase and incubated with the iodinated peptide GNAAS[^125 I]YRR and a source of NMT. […] The radiolabelled peptide is then used at concentrations which will lead to 50% enzyme saturation (i.e., at its Km) for the determination of fatty acid analog kinetic characteristics. Representative analogs with sulfur or oxygen in the backbone of the fatty acid chain serve as good substrates for NMT in vitro and will compete for incorporation of ^3 H labelled myri-state into yeast proteins in vivo. In addition, these analogs differ markedly in hydrophobicity from myri-state as measured both by C18 reverse phase HPLC elution profiles and by 2-octanol/water partition coefficients. The analog CH3 O(CH2)11 COOH, for example, partitions into water 20 fold better than myristate. It is believed that these analogs will be incorporated into mammalian acylproteins in vivo and that their incorporation into these proteins will drastically alter protein processing or targeting. It is further believed that the incorporation of fatty acid analogs of both myristate and palmitate into ester linked and phosphatidyl inositol glycan linked acylproteins will also dramatically alter their properties. Since many viral proteins and oncogenes are acylated, these compounds represent a new class of potential antiviral and antineoplastic agents.

[2] = C18 reverse phase HPLC elution of fatty acyl peptides (hydrophobicity); format: physicochemical; conditions: C18 reverse phase HPLC, acyl derivative of GNAAS[125I]YRR; Table 2
Description: The fatty acid analog acyl-peptide eluted 7 minutes earlier than the corresponding myristoyl peptide. The free peptide elutes in the void volume (3-5minutes).
This difference was evident when the HPLC elution characteristics of fatty acyl peptides were examined. The elution time of a particular acyl-peptide depends strongly on the peptide sequence as well as on the acyl chain attached to that peptide. For example, the elution times of fatty acyl derivatives of GNAAAARR are (in minutes) decanoic acid, 9; dodecanoic acid, 18; myristic acid, 24; and palmitic acid, 30. Elution times for fatty acyl derivatives of GNAAS[^125 I]YRR are 23 and 28 minutes for C12 and C14 fatty acids, respectively (FIG. 2). […] Such a change could alter the biological activity of myristoyl proteins.
as §3

[3] = 2-octanol/water partition; format: physicochemical
Description: as §3, with “It is further believed that the incorporation of fatty acid analogs of both myristate and palmitate into ester linked and phosphatidyl inositol glycan linked acylproteins will also dramatically alter their properties. Since many viral proteins and oncogenes are acylated, these compounds represent a new class of potential antiviral and antineoplastic agents.” left out

[4] = tested on: yeast myristoylprotein of Mr 20 kDa; assay: competition for [3H]myristate incorporation into yeast acylprotein in vivo; format: cell-based; conditions: Saccharomyces cerevisiae, 0.75 h; 100 μM unlabeled fatty acid or analog, 5 μM [3H]myristate, vs control cells; read-out: reduction in incorporation of [3H]myristate into yeast myristoylprotein of Mr 20 kDa
Description: (§4) Saccharomyces cerevisiae strain BJ405 [MATα, trpl, prbl, prcl, pep4-3; Hemmings et al., Proc. Natl. Acad. Sci. USA 78, 435-439 (1981)] (previously referred to as JR153) was grown to mid-log phase (OD660 nm =1.0-1.2) in YPD medium (1% yeast extract/2% Bactopeptone/2% Dextrose) at 30° C. in a rotary shaker water bath. Cells were pretreated with Cerulenin at 2 μg/ml for 15 minutes and then incubated for 20-45 minutes with unlabeled myristate, palmitate or fatty acid analog at 100 μM in the presence of either 5 μM [9,10-^3 H(N)]-myristate (22.4 Ci/mmol) or L-[^35 S]methionine (1106 Ci/mmol) at 30 μCi/ml of culture.
(§5) Cells were cooled on ice 5 minutes, pelleted at 10,000×g, then broken and extracted by the method of Towler et al., Proc. Natl. Acad. Sci. USA 83, 2812-2816 (1986). Total protein synthesis was assayed by trichloroacetic acid (TCA) precipitation. Proteins were separated by SDS-12% polyacrylamide gel electrophoresis, and [^3 H]fatty acid incorporation into cellular acyl-proteins was assayed by autoradiography followed by laser densitometry.

[5] = growth, toxicity and total protein synthesis in yeast cells; format: cell-based; conditions: s. cerevisiae bj405, vs control cells not exposed to exogenous fatty acid, read-out: reduction in total protein synthesis ([35S]methionine into TCA precipitable protein)
Description: as §4, §5

[6] = tested on: Saccharomyces cerevisiae strain BJ405; assay: as above; format: cell-based
Description: as §4, §5

[7] = substrate: C#CCOCCCCCCCCCC(=O)O; assay: kinetic characterisation of fatty acid analogs as yeast NMT substrates; format: biochemical; conditions: other: peptide GNAAS[125I]YRR varied, fatty acid analog at 15 μM
From the text: as §1, §2, §3

[8] = substrate: CCCCCCCCCCCCCC(=O)O; assay: as above; format: biochemical; conditions: other: peptide GNAAS[125I]YRR varied, fatty acid analog at 15 μM
From the text: as §1, §2, §3

[9] = substrate: CCCCCCCCOCCCCC(=O)O; assay: as above; format: biochemical; conditions: other: peptide GNAAS[125I]YRR varied, fatty acid analog at 15 μM
From the text: as §1, §2, §3

[10] = substrate: CCCCCCCCSCCCCC(=O)O; assay: as above; format: biochemical; conditions: other: peptide GNAAS[125I]YRR varied, fatty acid analog at 15 μM
From the text: as §1, §2, §3

[11] = substrate: CCCCOCCCCCCCCCCC(=O)O; assay: as above; format: biochemical; conditions: other: peptide GNAAS[125I]YRR varied, fatty acid analog at 15 μM
From the text: as §1, §2, §3

[12] = substrate: CCCOCCCCCCCCCC(=O)O; assay: as above; format: biochemical; conditions: other: peptide GNAAS[125I]YRR varied, fatty acid analog at 15 μM
From the text: as §1, §2, §3

[13] = substrate: CCCSCCCCCCCCCC(=O)O; assay: as above; format: biochemical; conditions: other: peptide GNAAS[125I]YRR varied, fatty acid analog at 15 μM
From the text: as §1, §2, §3

[14] = substrate: CCOCCCCCCCCCCC(=O)O; assay: as above; format: biochemical; conditions: other: peptide GNAAS[125I]YRR varied, fatty acid analog at 15 μM
From the text: as §1, §2, §3

[15] = substrate: CCSCCCCCCCCCCC(=O)O; assay: as above; format: biochemical; conditions: other: peptide GNAAS[125I]YRR varied, fatty acid analog at 15 μM
From the text: as §1, §2, §3

[16] = substrate: COCCCCCCCCCCC(=O)O; assay: as above; format: biochemical; conditions: other: peptide GNAAS[125I]YRR varied, fatty acid analog at 15 μM
From the text: as §1, §2, §3

Molecule | Peptide Vm ([1]; peptide GNAAS[125I]YRR varied, fatty acid analog at 15 μM, myristate control = 100%) [%] | Acyl CoA Vm ([1]; radiolabelled peptide at its Km, analog varied, myristate control = 100%) | Km ([1]; radiolabelled peptide at its Km, analog varied, read-out: Acyl CoA Km) [µM] | Elution Time [2] [min] | partition into water relative to myristate [3] [fold] | inhibition at 100 µM [4] [%] | inhibition at 100 µM [5] [%] | difference in growth rates versus cells treated with 100 μM myristate [6] | Km [7] [µM] | Km [8] [µM] | Km [9] [µM] | Km [10] [µM] | Km [11] [µM] | Km [12] [µM] | Km [13] [µM] | Km [14] [µM] | Km [15] [µM] | Km [16] [µM]
COCCCCCCCCCCCC(=O)O [E, 12-(Methoxy)dodecanoic acid] | 177 | ~ 110% | ~2 | 12 to 13 | 20 | 35 to 60 | 10 to 15 | No difference | – | – | – | – | – | – | – | – | – | –
B1 | – | – | – | – | – | – | – | – | 28 | 10 | 31 | 11.5 | 42 | 34 | 47 | 14.8 | 19 | 47.3
